Experimental data from article PMC12125293.

Target: HR2 peptide of the SARS-CoV-2 spike (H1159-K1211), His-SUMO removed (SARS-CoV-2) (UniProt P0DTC2)
Assay: crystal structure

HR2 peptide of the SARS-CoV-2 spike (H1159-K1211), His-SUMO removed (from UniProt P0DTC2 1159-1211) (domain or fragment)
stoichiometry N: 3
